From patent US20190338002A1 (Pieris, published 2019)
Where a chain is given by its changes, count along the chain named.

B1: lipocalin mutein SEQ ID NO: 7 (designed binder)
chain: QDSTSDLIPAPPLSKVPLQQNFQDNQFHGKWYVVGWAGNTLLREDKDPIKMQATIYELKEDKSYNVTWVYFSEKRCNYHIETSVPGSQPGEFTLGTIKSYPGETSILVRVVSTNYNQHAMVFFKGVSQNREIFEITLYGRTKELTSELKENFIRFSKSLGLPENHIVFPVPIDQCIDGSAWSHPQFEK
notes: biotinylated by NHS chemistry for capture in SPR
B2: lipocalin mutein SEQ ID NO: 8 (designed binder)
chain: B1 chain with L42R, D47N, I49T, R75K
notes: as for B1
B3: lipocalin mutein SEQ ID NO: 28 (designed binder)
chain: B1 chain with T54I, K62R, R75K, S83F, S105P, V111M, S127N, T136I, S146N
notes: as for B1
B4: cysteine-free lipocalin mutein SEQ ID NO: 31 (designed binder)
chain: QDSTSDLIPAPPLSKVPLQQNFQDNQFQGKWYVVGWAGNTLLREDKDPIKMQAMIYELKEDKSYNVTWVYFADKKRNYHIETFVPGSQPGEFTLGTIKSYPGETPILVRVVSTNYNQHAMVFFKGVNQNREIFEIVLYGRTKELTNELKENFIRFSKSLGLPENHIVFPVPIDQFIDGSAWSHPQFEK
notes: as for B1
B5: cysteine-free lipocalin mutein SEQ ID NO: 32 (designed binder)
chain: B4 chain with R76M, F175Y
notes: as for B1
B6: cysteine-free lipocalin mutein SEQ ID NO: 33 (designed binder)
chain: B4 chain with R76L, F175W
notes: as for B1
B7: cysteine-free lipocalin mutein SEQ ID NO: 34 (designed binder)
chain: B4 chain with R76I, F175E
notes: as for B1
B8: cysteine-free lipocalin mutein SEQ ID NO: 35 (designed binder)
chain: B4 chain with R76V, F175Y
notes: as for B1
B9: cysteine-free lipocalin mutein SEQ ID NO: 36 (designed binder)
chain: B4 chain with F175W
notes: as for B1
B10: cysteine-free lipocalin mutein SEQ ID NO: 37 (designed binder)
chain: B4 chain with R76N, F175L
notes: as for B1
B11: cysteine-free lipocalin mutein SEQ ID NO: 38 (designed binder)
chain: B4 chain with F175V
notes: as for B1
B12: cysteine-free lipocalin mutein SEQ ID NO: 39 (designed binder)
chain: B4 chain with R76K, F175D
notes: as for B1
B13: cysteine-free lipocalin mutein SEQ ID NO: 40 (designed binder)
chain: B4 chain with R76F, F175D
notes: as for B1
B14: lipocalin mutein SEQ ID NO: 9 (designed binder)
chain: B1 chain with N65D, F71L, R75K, V126M, T145A
notes: as for B1
B15: lipocalin mutein SEQ ID NO: 10 (designed binder)
chain: B1 chain with D47N, I49T, V66A, F71L, R75K, I97T, S105P
notes: as for B1
B16: lipocalin mutein SEQ ID NO: 12 (designed binder)
chain: B1 chain with I49P, K62R, R75K, K98Q, Y100H, S105P, V126M, S127G
notes: as for B1
B17: lipocalin mutein SEQ ID NO: 13 (designed binder)
chain: QDSTSDLIPAPPLSKVPLQQNFQDNQFHGKWYVVGRAGNEELREDKDPQKMEATIYELKEDKSYNVTDVGFSEKKCIYVIHTFVPGSQPGEFTLGNIKSYPGVTSALVRVVSTNYNQHAMVFFKVVKQNRELFEITLYGRTKELTSELKENFIRFSKSLGLPENHIVFPVPIDQCIDGSAWSHPQFEK
notes: as for B1
B18: lipocalin mutein SEQ ID NO: 16 (designed binder)
chain: B17 chain with E40D, Q49E, S72V, E73Q, I77M, A106G, K127R
notes: as for B1
B19: lipocalin mutein SEQ ID NO: 21 (designed binder)
chain: B17 chain with E40D, E41A, Q49E, S72V, E73Q, I77M, V108I, S112N, F123V, V125L
notes: as for B1
B20: lipocalin mutein SEQ ID NO: 22 (designed binder)
chain: B17 chain with E40D, E41A, Q49E, F71L, S72V, E73Q, I77M, S87G, F123V, V125L
notes: as for B1

Columns and labels:
[1] = biological target: T1, rat beta CGRP (SEQ ID NO: 83) (rat, not fully specified); assay: SPR, 37 C, mutein captured, CGRP analyte
T1 construct: also called rat βCGRP; rat β-CGRP
T1 peptide: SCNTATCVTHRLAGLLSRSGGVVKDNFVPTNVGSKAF
Method: (§1) The Biotin CAPture Kit (GE Healthcare) was used to immobilize biotinylated lipocalin muteins to a chip surface. Muteins were biotinylated using standard NHS chemistry. Undiluted Biotin CAPture Reagent (streptavidin conjugated with ss-DNA oligo) was captured on a Sensor Chip CAP with the pre-immobilized complementary ss-DNA oligo. Thereafter, biotinylated muteins at 1 μg/mL were applied for 300 s at a flow rate of 5 μL/min.
(§2) CGRP species were applied in three concentrations of 30 nM, 3 nM and 0.3 nM at a flow rate of 30 μL/min or in a single concentration of 25 nM per cycle as shown in FIG. 2. The dilutions were injected with association times of 180 s and dissociation times of 5400 sec to obtain ka and kd information. Regeneration of the chip surface was achieved by injecting 6 M Guanidinium-HCl+0.25 M NaOH (120 s) with a flow rate of 10 μL/min. Injection of regeneration solutions was followed by an extra wash step with HBS-EP+(1×; BR-1006-69; GE Healthcare) running buffer and a stabilization period of 120 s.
(§3) The data were double-referenced by subtraction of the corresponding signals measured for the control channel (loaded with Biotin CAPture reagent only) and by subtraction of buffer injections from the binding responses. Association rate constant ka and dissociation rate constant kd for the binding reaction were determined using Biacore T200 Evaluation Software V2.0 for data processing and kinetic fitting. The data were globally fit with 1:1 binding model.

[2] = biological target: T2, rat alpha CGRP (SEQ ID NO: 82) (rat); assay: SPR, 37 C, mutein captured, CGRP analyte
T2 construct: also called rat αCGRP; rat α-CGRP
T2 peptide: T1 peptide with K35E
Method: as §1, §2, §3

[3] = biological target: T3, human beta CGRP (SEQ ID NO: 81) (human, not fully specified); assay: SPR, 37 C, mutein captured, CGRP analyte
T3 construct: also called human βCGRP; hβCGRP
T3 peptide: T1 peptide with S1A, V22M, D25S
Method: as §1, §2, §3

[4] = biological target: T4, human alpha CGRP (SEQ ID NO: 80) (human, not fully specified); assay: SPR, 37 C, mutein captured, CGRP analyte
T4 construct: also called human αCGRP; hαCGRP
T4 peptide: T1 peptide with S1A, N3D, D25N
Method: as §1, §2, §3

[5] = biological target: T3, human beta CGRP (SEQ ID NO: 81); assay: SPR as in Example 5
Method: as §1, §2

[6] = biological target: T4, human alpha CGRP (SEQ ID NO: 80); assay: SPR as in Example 5
Method: as §1, §2

[7] = biological target: T3, human beta CGRP (SEQ ID NO: 81); assay: cell-based or functional assay
[8] = biological target: T4, human alpha CGRP (SEQ ID NO: 80); assay: cell-based or functional assay

Binder	Kd [1] [nM]	koff [1] [s⁻¹]	kon [1] [M⁻¹ s⁻¹]	Kd [2] [nM]	koff [2] [s⁻¹]	kon [2] [M⁻¹ s⁻¹]	Kd [3] [nM]	koff [3] [s⁻¹]	kon [3] [M⁻¹ s⁻¹]	Kd [4] [nM]	koff [4] [s⁻¹]	kon [4] [M⁻¹ s⁻¹]	Kd [5] [nM]	Kd [6] [nM]	cAMP assay IC50, SK-N-MC cells [7] [nM]	cAMP assay IC50, SK-N-MC cells [8] [nM]
B1	0.091	0.000276	3.04e+06	0.3	0.000313	1.04e+06	0.036	0.000188	5.21e+06	0.067	0.000249	3.74e+06				
B2	0.349	0.000636	1.82e+06	1.14	0.000837	734000	0.143	0.000529	3.7e+06	0.288	0.000595	2.07e+06				
B3	0.032	5.48e-05	1.72e+06	0.049	6.88e-05	1.41e+06	0.014	3.41e-05	2.52e+06	0.031	4.99e-05	1.59e+06				
B4													0.043	0.033	1.64	0.19
B5													0.021	0.034	0.26	0.17
B6													0.018	0.034	0.24	0.14
B7													0.025	0.041	0.29	0.12
B8													0.017	0.045	0.27	0.15
B9													0.022	0.046	0.81	0.25
B10													0.023	0.055	0.77	0.16
B11													0.026	0.059	3.16	0.21
B12													0.034	0.062	1.03	0.21
B13													0.023	0.07	0.42	0.18
B14	0.075	0.000275	3.68e+06	0.26	0.000318	1.22e+06	0.027	0.000181	6.8e+06	0.044	0.000257	5.88e+06				
B15	0.206	0.000224	1.08e+06	0.55	0.000307	559000	0.076	0.000162	2.14e+06	0.163	0.000205	1.26e+06				
B16	0.176	0.000205	1.17e+06	0.45	0.000299	661000	0.095	0.000104	1.1e+06	0.15	0.000162	1.08e+06				
B17	0.111	0.00035	3.16e+06	0.28	0.000525	1.85e+06	0.031	0.000366	1.18e+07	0.075	0.000436	5.82e+06				
B18	0.097	0.000229	2.37e+06	0.28	0.000398	1.41e+06	0.036	0.000364	1.01e+07	0.052	0.000259	5.02e+06				
B19	0.018	2.36e-05	1.34e+06	0.053	3.7e-05	703000	0.004	8.74e-06	2.36e+06	0.014	1.71e-05	1.21e+06				
B20	0.013	2.02e-05	1.6e+06	0.033	3.05e-05	931000	0.003	9.32e-06	2.7e+06	0.009	1.56e-05	1.76e+06				
